Measurements published in patent publication US20260234247A1 (published 2026).

What was measured:
human LILRA1 [1] = biological target: T1, human LILRA1 (human, UniProt O75019 17-461, limits assumed); assay: ELISA, 200 nM antibody, OD450; + = 2-fold over ISO
T1 construct: Bought protein; also called hLILRA1
T1 sequence (O75019 17-461 limits assumed): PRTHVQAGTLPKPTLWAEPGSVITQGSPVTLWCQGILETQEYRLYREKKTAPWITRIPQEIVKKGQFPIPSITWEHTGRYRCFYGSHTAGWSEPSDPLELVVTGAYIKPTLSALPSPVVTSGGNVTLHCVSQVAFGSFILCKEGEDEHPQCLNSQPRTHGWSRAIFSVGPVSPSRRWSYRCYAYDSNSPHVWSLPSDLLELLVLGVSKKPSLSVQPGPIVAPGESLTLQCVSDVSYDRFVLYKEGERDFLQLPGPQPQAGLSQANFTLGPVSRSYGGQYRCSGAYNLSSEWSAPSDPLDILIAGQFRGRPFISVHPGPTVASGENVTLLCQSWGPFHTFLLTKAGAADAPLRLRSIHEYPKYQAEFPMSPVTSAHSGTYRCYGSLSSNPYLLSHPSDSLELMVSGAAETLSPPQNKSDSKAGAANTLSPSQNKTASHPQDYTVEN
Procedure: (§1) To further confirm binding affinity, selected clones were assayed in ELISA or FACS in a range of testing concentrations.

human LILRA2 [2] = biological target: T2, human LILRA2 (human, UniProt Q8N149 24-449); assay: ELISA, 200 nM antibody, OD450; + = 2-fold over ISO
T2 construct: Bought protein; also called hLILRA2
Procedure: as §1

Biotinylated LILRB1 [3] = biological target: T3, Biotinylated LILRB1 (UniProt Q8NHL6 24-458, limits assumed, biotinylated (sites not given)); assay: epitope binning ELISA, coated 1 ug/ml; competitor 15G8 at 20 ug/ml
Biotinylated LILRB1 [4] = biological target: T3, Biotinylated LILRB1; assay: epitope binning ELISA, coated 1 ug/ml; competitor hz73D1.v1 at 20 ug/ml
Procedure: (§2) Binding epitope of a subset of anti-LILRB1 and anti-LILRB2 antibodies was analyzed by epitope binning ELISA. Briefly, a panel of testing antibodies were coated onto ELISA plate. 50 ul/well Biotinylated LILRB1 or LILRB2 and 50 ul/well of competing antibodies were added to the coated plate and incubated at 37° C. for 1 hour. After Streptavidin-HRP (1:5000) incubation and TMB development, the plates were read at 450 nm using Molecular device spectra max plus384.

Biotinylated LILRB1 [5] = biological target: T3, Biotinylated LILRB1; assay: epitope binning ELISA, coated 1 ug/ml; competitor LK-RB1-47 at 20 ug/ml
Procedure: as §2

Biotinylated LILRB1 [6] = biological target: T3, Biotinylated LILRB1; assay: epitope binning ELISA, coated 1 ug/ml; competitor LK-RB1-9 at 20 ug/ml
Procedure: as §2

human LILRA1 [7] = biological target: T4, human LILRA1 (human, UniProt O75019 17-461, limits assumed); assay: Octet off-rate ranking;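 also: antibody dissociation rate constants against cynomolgus LILRB2 plus human LILRB1, LILRB2, LILRA1 and LILRA2, measured on an Octet instrument to rank binding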
T4 construct: also called hLILRA1
T4 sequence (O75019 17-461 limits assumed): as above
Source text: (§3) Binding affinity of anti-LILRB1 and anti-LILRB2 antibodies against human LILRB1, LILRB2, LILRA1, LILRA2 and cynomolgus LILRB2 was ranked by measuring dissociation rate constant (Kdis) using the Octet system.

human LILRB1 = biological target: T5, human LILRB1 (human, UniProt Q8NHL6 24-458, limits assumed); assay: Octet off-rate ranking;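 also: antibody dissociation rate constants against cynomolgus LILRB2 plus human LILRB1, LILRB2, LILRA1 and LILRA2, measured on an Octet instrument to rank binding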
T5 construct: also called hLILRB1
Source text: as §3

human LILRA2 [8] = biological target: T6, human LILRA2 (human, UniProt Q8N149 24-449, limits assumed); assay: Octet off-rate ranking;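 also: antibody dissociation rate constants against cynomolgus LILRB2 plus human LILRB1, LILRB2, LILRA1 and LILRA2, measured on an Octet instrument to rank binding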
T6 construct: also called hLILRA2
Source text: as §3

Biotinylated LILRB1 [9] = biological target: T3, Biotinylated LILRB1; assay: epitope binning ELISA, coated 1 ug/ml; competitor LK-RB1-33 at 20 ug/ml
Procedure: as §2

Biotinylated LILRB1 [10] = biological target: T3, Biotinylated LILRB1; assay: epitope binning ELISA, coated 1 ug/ml; competitor LK-RB1-12 at 20 ug/ml
Procedure: as §2

Biotinylated LILRB1 [11] = biological target: T3, Biotinylated LILRB1; assay: epitope binning ELISA, coated 1 ug/ml; competitor LK-RB1-31 at 20 ug/ml
Procedure: as §2

Biotinylated LILRB1 [12] = biological target: T3, Biotinylated LILRB1; assay: epitope binning ELISA, coated 1 ug/ml; competitor LK-RB1-16 at 20 ug/ml
Procedure: as §2

human LILRA3 = biological target: T7, human LILRA3 (human, UniProt Q8N6C8 24-439); assay: ELISA, OD450, antibody at 200 nM; + = 2-fold over ISO
T7 construct: bought protein coated for ELISA; also called hLILRA3
Procedure: as §1

human LILRB3 = biological target: T8, human LILRB3 (human, UniProt O75022 24-443); assay: as above
T8 construct: bought protein coated for ELISA; also called hLILRB3
Procedure: as §1

human LILRB5 = biological target: T9, human LILRB5 (human, UniProt O75023 24-458); assay: as above
T9 construct: bought protein coated for ELISA; also called hLILRB5
Procedure: as §1

human LILRA1 [13] = biological target: T10, human LILRA1 (human, UniProt O75019 17-461, limits assumed); assay: as above
T10 construct: bought protein coated for ELISA; also called hLILRA1
T10 sequence (O75019 17-461 limits assumed): as above
Procedure: as §1

T3 sequence (Q8NHL6 24-458 limits assumed): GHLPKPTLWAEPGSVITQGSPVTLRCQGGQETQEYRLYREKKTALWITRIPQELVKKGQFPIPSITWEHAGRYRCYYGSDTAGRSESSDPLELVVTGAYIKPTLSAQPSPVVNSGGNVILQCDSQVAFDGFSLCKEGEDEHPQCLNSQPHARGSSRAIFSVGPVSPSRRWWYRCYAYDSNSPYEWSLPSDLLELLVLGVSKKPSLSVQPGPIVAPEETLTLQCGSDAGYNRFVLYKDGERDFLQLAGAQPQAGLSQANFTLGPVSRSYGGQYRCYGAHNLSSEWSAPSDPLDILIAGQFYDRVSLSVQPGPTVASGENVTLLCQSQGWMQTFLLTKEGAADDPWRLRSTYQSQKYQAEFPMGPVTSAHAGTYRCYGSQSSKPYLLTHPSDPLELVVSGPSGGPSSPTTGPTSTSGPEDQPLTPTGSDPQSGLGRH
T2 sequence (Q8N149 24-449 limits assumed): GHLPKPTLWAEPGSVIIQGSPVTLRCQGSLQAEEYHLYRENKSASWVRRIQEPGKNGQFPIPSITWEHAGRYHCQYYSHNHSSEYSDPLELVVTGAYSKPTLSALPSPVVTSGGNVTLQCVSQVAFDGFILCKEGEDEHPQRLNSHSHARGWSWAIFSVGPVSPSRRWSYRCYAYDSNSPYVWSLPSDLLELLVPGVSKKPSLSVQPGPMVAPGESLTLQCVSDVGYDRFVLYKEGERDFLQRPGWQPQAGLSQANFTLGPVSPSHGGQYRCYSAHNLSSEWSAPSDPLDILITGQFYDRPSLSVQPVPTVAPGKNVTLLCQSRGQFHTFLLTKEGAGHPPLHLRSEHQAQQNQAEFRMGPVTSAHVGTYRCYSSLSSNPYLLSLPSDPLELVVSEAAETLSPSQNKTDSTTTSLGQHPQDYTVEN
T6 sequence (Q8N149 24-449 limits assumed): as above
T5 sequence (Q8NHL6 24-458 limits assumed): as the sequence (Q8NHL6 24-458 limits assumed) above
T9 sequence (O75023 24-458 limits assumed): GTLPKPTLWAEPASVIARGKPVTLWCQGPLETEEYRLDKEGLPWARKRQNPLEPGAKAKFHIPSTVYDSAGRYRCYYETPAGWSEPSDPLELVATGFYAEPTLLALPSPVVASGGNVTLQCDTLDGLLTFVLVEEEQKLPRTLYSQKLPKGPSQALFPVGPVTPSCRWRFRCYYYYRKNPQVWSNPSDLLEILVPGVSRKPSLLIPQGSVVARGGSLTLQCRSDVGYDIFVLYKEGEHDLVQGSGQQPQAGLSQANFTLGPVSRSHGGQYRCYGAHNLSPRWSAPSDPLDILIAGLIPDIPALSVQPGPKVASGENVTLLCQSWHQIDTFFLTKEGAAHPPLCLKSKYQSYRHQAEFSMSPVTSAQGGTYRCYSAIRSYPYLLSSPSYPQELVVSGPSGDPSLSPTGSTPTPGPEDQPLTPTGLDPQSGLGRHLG
T7 sequence (Q8N6C8 24-439 limits assumed): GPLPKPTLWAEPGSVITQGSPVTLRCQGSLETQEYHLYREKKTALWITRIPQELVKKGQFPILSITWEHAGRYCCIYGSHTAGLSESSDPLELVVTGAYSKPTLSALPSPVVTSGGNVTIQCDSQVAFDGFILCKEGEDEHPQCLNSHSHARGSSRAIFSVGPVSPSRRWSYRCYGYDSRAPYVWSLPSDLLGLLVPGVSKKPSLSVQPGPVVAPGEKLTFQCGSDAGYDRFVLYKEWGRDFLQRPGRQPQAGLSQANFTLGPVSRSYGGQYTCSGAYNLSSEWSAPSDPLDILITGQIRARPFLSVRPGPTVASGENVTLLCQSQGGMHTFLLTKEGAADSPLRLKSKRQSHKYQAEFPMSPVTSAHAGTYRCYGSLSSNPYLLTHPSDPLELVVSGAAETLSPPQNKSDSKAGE

Binder	binding result (human LILRA1 [1])	binding result (human LILRA2 [2])	Inhibition % (Biotinylated LILRB1 [3]) [%]	Inhibition % (Biotinylated LILRB1 [4]) [%]	Inhibition % (Biotinylated LILRB1 [5]) [%]	Inhibition % (Biotinylated LILRB1 [6]) [%]	koff (human LILRA1 [7]) [s⁻¹]	koff (human LILRB1) [s⁻¹]	koff (human LILRA2 [8]) [s⁻¹]	Inhibition % (Biotinylated LILRB1 [9]) [%]	Inhibition % (Biotinylated LILRB1 [10]) [%]	Inhibition % (Biotinylated LILRB1 [11]) [%]	Inhibition % (Biotinylated LILRB1 [12]) [%]	binding result (human LILRA3)	binding result (human LILRB3)	binding result (human LILRB5)	binding result (human LILRA1 [13])
LK-RB2-29 (antibody, human IgG4 S228P, kappa, V domains shown) VH: QVQLQQSGAELARPGASVKLSCKASGYTFTSYWMQWVKQRPGQGLEWIGAIYPGDGDTRYTQKFKGKATLTADKSSSTAYMQLSSLASEDSAVYYCARGYYGSSYADYFDYWGQGTTLTVSS VL: DIQMTQSPASLSASVGETVTITCRASGNIHNYLAWYQQKQGKSPQLLVYNAKTLADGVPSRFSGSGSGTQYSLKINSLQPEDFGSYYCQHFWSTPPTFGGGTKLEIKR	binds	binds															
15G8 (antibody, human IgG4 S228P, kappa, V domains shown) VH: DVQLQGSGPGLVKPSETLSLTCSVTGYSITSGYYWNWIRQFPGKKLEWMGYISYDGSNNYNPSLKNRITISRDTSKNQFSLKLNSVTAADTATYYCAHGYSYYYAMDAWGQGTSVTVSS VL: DIQMTQSPSSLSASVGDRVTITCRTSQDISNYLNWYQQKPGKAVKLLISYTSRLHSGVPSRFSGSGSGTDYTLTISSLQPEDFATYYCQQGNTLPTFGQGTKLEIKR			73	-0.56	13.5	92.1	0.000278	0.00389	0.00117	90.5	3.58	-0.67	-0.72				
LK-RB1-9 (antibody, human IgG4 S228P, kappa, V domains shown) VH: QIQLVQSGPELKKPGETVKISCTASGYTFTTYGMSWVKQAPGKGLKWMGWINTYSGVPTYADDFKGRFAFSLETSASTAYLEINNVKNEDTATYFCARRRRTYHGYLCFDYWGQGTTLTVSS VL: DIQMTQSPVSLSASVGETVTITCETSENIYGALNWYQRKQGKSPQLLIYGATNLADGMSSRFSGSGSGRQYSLEISSLHPDDVASYYCQNVLNTPWTFGGGTKLEIKR			48.6	88.1	89.1	73.9	0.000155	0.000162	0.000885	67.4	92.1	10.2	21.9				

The remaining lines, values ahead:

binding result (human LILRA1 [1])	binding result (human LILRA2 [2])	Inhibition % (Biotinylated LILRB1 [3]) [%]	Inhibition % (Biotinylated LILRB1 [4]) [%]	Inhibition % (Biotinylated LILRB1 [5]) [%]	Inhibition % (Biotinylated LILRB1 [6]) [%]	koff (human LILRA1 [7]) [s⁻¹]	koff (human LILRB1) [s⁻¹]	koff (human LILRA2 [8]) [s⁻¹]	Inhibition % (Biotinylated LILRB1 [9]) [%]	Inhibition % (Biotinylated LILRB1 [10]) [%]	Inhibition % (Biotinylated LILRB1 [11]) [%]	Inhibition % (Biotinylated LILRB1 [12]) [%]	binding result (human LILRA3)	binding result (human LILRB3)	binding result (human LILRB5)	binding result (human LILRA1 [13])	Binder
binds	binds																LK-RB2-41 (antibody, human IgG4 S228P, kappa, V domains shown) VH: EVQLQLSGPELVKPGASVKMSCKASGYTFTDYNMHWVKQSHGKSLEWIGYINPNNGGTTYNQKFKGKATLTVNKSSSTAYMELRSLTSEDSAVYYCARAPYYGSSYLLAYWGQGTLVTVSA VL: DIVMTQSHKFMSTSVGDRVSITCKASQDVSTAVAWYQQKPGQSPKLLIYSASYRYTGVPDRFTGSGSGTDFTFTISSVQAEDLAIYYCQQHYSIPWTFGGGTKLEIKR
													binds	binds	binds	binds	LK-RB1-39 (antibody, human IgG4 S228P, kappa, V domains shown, anti-LILRB1 clone from mouse hybridoma) VH: EVQLQQSGAELVRPGASVKLSCTASGFNIKDDYVHWVNQRPEQGLEWIGWIDPENGDTGYASKFQDKATITADTSSNTAYLHLSSLTSEDTAVYYCTTTRWTGSYWGQGTTLTVSS VL: QIVLTQSPAIMSASPGEKVTITCSASSSVNYMHWFQQKPGSSPKLWIYSTANLASGVPARFSGSGSGTSYSLTISRMEAEDAATYYCQQRSSYPPTWTFGGGTKLEIKR
